According to patent US11771829B2, “Systems and methods for liquid injection” (Massachusetts Institute of Technology, priority 2019, dated 2023):

Legend:
blood glucose = experiment: Blood glucose in swine after dosing; type: in vivo
Protocol: (§1) L-SOMA dosings were compared to subcutaneous or intramuscular dosings as positive controls. Using an endoscope, we placed L-SOMA devices into the stomachs of swine and allowed them to independently actuate. After 2 hours the devices were removed from the animal.

[1] = In vivo swine pharmacokinetics after L-SOMA, subcutaneous or endoscopic gavage dosing
Protocol: In vivo swine experiments were performed in which L-SOMA devices loaded with either an inactivated GLP-1 receptor agonist or fast acting insulin were prepared. L-SOMA dosing experiments were compared to subcutaneous dosing experiments and experiments where swine were dosed with the liquid formulation into the stomach lumen. Using an endoscope, L-SOMA devices were placed into the stomachs of swine and allowed to independently actuate. After 2 hours the devices were removed from the animal. Time 0 corresponds to the time at which the device was placed in the stomach and not the time that the device actuated. The swine dosed were partially fasted but contained a layer of gastric fluid and food approximately the same height as the L-SOMA capsule.
as §1
Insulin and GLP-1 generally have limited ability to traverse the stomach lining for systemic uptake when administered without a permeation enhancer or physical permeation enhancing device.

swine stomach = experiment: Histology of swine stomach after L-SOMA injection; type: in vivo; details: swine stomach after L-SOMA epinephrine injection
Protocol: as §1

heart rate = details: swine; 0.24 mg; both intramuscular injection and L-SOMA groups
Protocol: as §1

[2] = Liquid formulation stability, two weeks at 40° C. and 75% relative humidity; type: physicochemical
Protocol: FIGS. 53A-53B show liquid formulation stability, according to one set of embodiments. Human Insulin (HI) and Semaglutide (Sema) formulations were placed inside of either an L-SOMA or a glass vial apparatus and were subjected to a 40° C. and 75% relative humidity environment for two weeks. (a) Purity loss and (b) high molecular weight protein (HMWP) formation were then measured. (Error=SD, n=3 device replicates, **P<0.01, ***P<0.001).
Additionally, the purity loss for the liquid formulation was higher than the purity loss for the solid formulation we previously reported using in the SOMA system. Optimization of the L-SOMA storage system and loaded liquid formulation will be required to ensure long term stability of the filled drug.

CNC[C@H](O)c1ccc(O)c(O)c1 [epinephrine]
blood glucose change (blood glucose; 0.24 mg, both intramuscular injection and L-SOMA groups): abrupt rise | uptake after endoscopic gavage (negative control) ([1]; in vivo): negligible uptake | plasma exposure of drug observed after administration ([1]; swine, in vivo): ≤ 15 min | H&E staining: necrosis or adverse effects elicited by the drug (swine stomach): no evidence of necrosis or adverse effects | heart rate change (heart rate): abrupt rise

adalimumab
uptake after endoscopic gavage (negative control) ([1]; in vivo): negligible uptake | drug in blood plasma after dosing ([1]; in vivo, sc): at least 3 days

recombinant human insulin: recombinant human insulin, 1 mg liquid dose
hypoglycemic onset (blood glucose; insulin 1 mg, L-SOMA (FIG. 47B) and subcutaneous (FIG. 47F)): immediate hypoglycemic onset | bioavailability, range ([1]; swine, L-SOMA dosed, 1 mg, two hour sampling period, n=8): 25%-81% | bioavailability, range ([1]; swine, dosed subcutaneously, insulin, n=3): 50.8%-66.2% | high molecular weight protein formation, L-SOMA system versus glass vial system [2]: greater | purity loss, L-SOMA system versus glass vial system [2]: greater

semaglutide
high molecular weight protein formation, L-SOMA system versus glass vial system [2]: greater | purity loss, L-SOMA system versus glass vial system [2]: greater
